Measurements: patent publication US20230321183A1

Target: OTi TCR on OT-I mouse T cells
Test: cell-based or functional assay

In the case of “FITC-conjugated tetramer H2Kb-SIINFEKL (from UniProt P01901 22-305) (peptide-MHC)”, the cytotoxicity of human primary CD8 anti-FITC CAR T cells on OTi cells is reported as > 50%.
